Data taken from the supplement of paper PMC10724198.
± gives the standard deviation of the averaged measurements.

What follows are sequences tested on Saccharomyces cerevisiae (assay: protein stability index of tFT-peptide fusion (C-terminal peptide) (PSI (0-1 scale)); higher = more stable (slower turnover)). Details: genetic background: wild type; temperature: 30 C.
Experimental: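 Multiplexed protein stability (MPS) profiling in S. cerevisiae. Random 12-aa peptides (tFT-X12 library) are fused to the C-terminus of a sfGFP-mCherry tandem fluorescent timer, after mCherry and a GGGS linker. Cells are FACS-sorted into 8 mCherry/sfGFP bins and deep-sequenced. The protein stability index (PSI) is the read-weighted bin average, scaled from 0 (unstable) to 1 (stable). Only peptides with >10 reads are reported; cells were grown at 30 °C in SC-His with glucose.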
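Further: PSI is a weighted mean of sequencing reads over stability bins, variants kept only with over 10 reads, mCherry proximal and sfGFP distal, peptide attached via GGGS linker.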

Sequence	protein stability index
HRLMDTNFSRSP	0.743 ± 0.061
HRLTGMRKRGRG	0.658 ± 0.066
HRLWAGWGLEQC	0.712 ± 0.013
HRPDGTSRKSGA	0.662 ± 0.024
HRRCPVPRGSSP	0.704 ± 0.019
HRYRAFPLASSR	0.618 ± 0.056
HSASSDAGIKVR	0.718 ± 0.0083
HSFPSTLRRCFL	0.731 ± 0.095
HSHIPPNLTYCP	0.69396 ± 0.00029
HSIPPPRRHPTI	0.742 ± 0.025
HSPPAGPPHTKT	0.6694 ± 0.0039
HSPPPPFSPFSP	0.667 ± 0.024
HSPSSLCHPSTG	0.727 ± 0.098
HSRGGEPLTPAW	0.642 ± 0.092
HSSPPPAPPPLP	0.697 ± 0.019
HSSSGTHRIKKT	0.667 ± 0.052
HTKYISRRRTKR	0.706 ± 0.013
HTPTLPLHPPRY	0.642 ± 0.037
HTTMVGVAEGWV	0.686 ± 0.049
HTVPTLLPPNVP	0.665 ± 0.015
HVAYAQSRLFYA	0.638 ± 0.094
HVLRMFTGFLFC	0.624 ± 0.044
HVRVGRGLAVMC	0.528 ± 0.027
HVYDQLLSGAVA	0.691 ± 0.017
HWVVRGGSRRVV	0.7056 ± 0.0045

Sequence	protein stability index
HYDTHQTPQTSP	0.667 ± 0.023
IACLDVLRRALF	0.627 ± 0.016
IADDSSHGFRGE	0.7161 ± 0.0064
IAKKNKTSKNRK	0.703 ± 0.025
IALLGCFRVNGN	0.638 ± 0.095
IAQDLEPACIKG	0.695 ± 0.021
IATPQNPRRTKA	0.714 ± 0.045
IAVPFMPADLSF	0.718 ± 0.0089
IAVSSHPVLVCK	0.5961 ± 0.0029
IAWGNEISHSLF	0.72 ± 0.066
ICGGTNFPLGSV	0.741 ± 0.032
ICGLWVCLGHGF	0.595 ± 0.067
ICSLLIRREELV	0.681 ± 0.081
ICSVHFLFFPLL	0.573 ± 0.014
IDASPRFRDFLF	0.71 ± 0.022
IDLIKIKKKTKK	0.786 ± 0.17
IDQTSKRCKRAC	0.672 ± 0.018
IDYETIQKYKVE	0.633 ± 0.011
IEEQQKEKNRPK	0.712 ± 0.027
IFGRLRELTCWT	0.588 ± 0.034
IFHLFPFDNPYD	0.8 ± 0.048
IFMGSPYPRLPT	0.633 ± 0.018
IFPLPPSSRLTP	0.6934 ± 0.0037
IFWRGVVDVCSG	0.584 ± 0.065
IGATSMSREARY	0.7052 ± 0.0017

Sequence	protein stability index
IGCEVLQCRCVD	0.672 ± 0.014
IGRLQGWSSGDE	0.688 ± 0.037
IGRWGVRWKAVG	0.512 ± 0.053
IGSCLSRTRKRR	0.6922 ± 0.0031
IHEGIKNENFKR	0.71 ± 0.0053
IHLQGSSYRSLT	0.68 ± 0.14
IHQDGEQKETRK	0.6948 ± 0.0047
IHSPCAMRPLIS	0.672 ± 0.0087
IHSRAAVGEYTG	0.6425 ± 0.0046
IHTNICKSKDII	0.706 ± 0.025
IILDRQNRDLKY	0.634 ± 0.084
IINKRITKETDE	0.6738 ± 0.0023
IINKRYEFRERT	0.764 ± 0.03
IISQLEQSFISP	0.7402 ± 0.0056
IKEITKENNRNE	0.708 ± 0.083
IKIKKKKKKKRD	0.665 ± 0.012
IKKEENKNENQE	0.6809 ± 0.0035
IKKRHQNGGKKE	0.65 ± 0.0085
IKKRVTFSYDGK	0.686 ± 0.062
IKMRKICLIGSM	0.603 ± 0.052
IKRVPRRSEYRG	0.633 ± 0.043
IKSTYRNPLPPL	0.657 ± 0.038
IKYEKENNINKI	0.679 ± 0.039
ILCPIKHKRKGS	0.703 ± 0.064
ILFLGSLGCPGG	0.697 ± 0.019

Sequence	protein stability index
ILGVVLRLCNCQ	0.7834 ± 0.0055
ILIYFWFSFFFF	0.753 ± 0.013
ILKKLNQEINKE	0.698 ± 0.028
ILLSETEMIDAD	0.683 ± 0.022
ILPPCVNIGSGV	0.64 ± 0.043
ILQGENKEGINT	0.668 ± 0.035
ILSRAGMITHCR	0.642 ± 0.019
ILTAVFAVPILP	0.57 ± 0.04
INIQKKKKIQHI	0.508 ± 0.031
INKKKKKKSKQK	0.7 ± 0.089
INKLRLNKKKSF	0.659 ± 0.008
INRGGLVRGFGS	0.725 ± 0.17
INSEKKKDRNKL	0.779 ± 0.02
INTNASSWRICK	0.7379 ± 0.0049
INVCVLSSSTAS	0.684 ± 0.079
IPCLPHPSLPPQ	0.757 ± 0.039
IPFPSFPASLYR	0.694 ± 0.021
IPGDTLSTTTVT	0.67 ± 0.05
IPLGGPTPSNYD	0.721 ± 0.025
IPSHSVLCLSIY	0.497 ± 0.042
IQHWGIRRRITY	0.728 ± 0.066
IQKIKYKRKYIK	0.73 ± 0.027
IQLPPPYATPPS	0.645 ± 0.012
